No end group written: not given here.
Molecular target: T1, human Y4 receptor (human, UniProt P50391 1-375)
Test: 125I-PP displacement

T1 sequence (P50391 whole entry): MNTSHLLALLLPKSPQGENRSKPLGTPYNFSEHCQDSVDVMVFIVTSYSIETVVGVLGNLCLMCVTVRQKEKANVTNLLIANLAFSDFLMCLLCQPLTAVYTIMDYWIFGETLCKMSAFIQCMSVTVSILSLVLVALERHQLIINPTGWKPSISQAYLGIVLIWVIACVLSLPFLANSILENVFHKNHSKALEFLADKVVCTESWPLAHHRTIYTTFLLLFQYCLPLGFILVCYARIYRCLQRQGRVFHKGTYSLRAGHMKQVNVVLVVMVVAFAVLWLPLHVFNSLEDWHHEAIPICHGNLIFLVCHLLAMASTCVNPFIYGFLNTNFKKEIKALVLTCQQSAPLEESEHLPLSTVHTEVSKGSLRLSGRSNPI

**Q.** Which IC50 does the source give for APLEPVYPGDDATPQQMAQYYAELRHYLNLVTRPRY [4055248] here?
**A.** 0.38 nM

**Q.** How did the IC50 turn out when APLEPEYPGDDATPEQMAEYAADLRRYINMLTRPRY [4055407] was run?
**A.** 0.29 nM

**Q.** APLEPVYPGDNATPEQMAQYAADLRRYIDMLTRPRY [4055403] was tested. Which IC50 did it give?
**A.** 0.5 nM

**Q.** For APLEPVYPGDNATPEQMAQYAADLRRYINMLTRPQY [4054977], which IC50 is on record?
**A.** 1.8 nM

**Q.** For PAPLEPKYPGDDATPQQMARYAAELRRYINKLTRPRY [7255], which IC50 is on record?
**A.** 0.091 nM

**Q.** With PAPLEPEYPGDDATPQQMARYAAELRRYINILTRPRY [7256] as the binder, how does the IC50 read?
**A.** 0.132 nM

**Q.** How did the IC50 turn out when PAPLEPTYPGDNATPEQMAKYAAELRRYINKLTRPRY [7252] was run?
**A.** 0.082 nM

**Q.** PAPLEPEYPGDDATPQQMARYAAELRRYINFLTRPRY [7257] was tested. Which IC50 did it give?
**A.** 0.142 nM

**Q.** For PAPLEPTYPGDDATPQQMARYAAELRRYINKLTRPRY [7258], which IC50 is on record?
**A.** 0.068 nM

**Q.** For PAPLEPEYPGDNATPEQMARYAAELRRYINKLTRPRY [7254], which IC50 is on record?
**A.** 0.109 nM

**Q.** For KPLEPVYPGDDATPQQMAQYAAELRRYINMLTRPRY [4055197], which IC50 is on record?
**A.** 0.62 nM

**Q.** How did the IC50 turn out when KPLEPVYPGDDATPQQMAQYAAELRRYINMLTRPRY [4055196] was run?
**A.** 0.33 nM

**Q.** With PLEPFYPGDDATPQQMAQYAAALRRYINMLTRPRY [4055287] as the binder, how does the IC50 read?
**A.** 0.5 nM

**Q.** Which IC50 does the source give for APLEPVYPGDNATPEQMNRYYASLRHYLNLVTRPRY [4054985] here?
**A.** 0.17 nM

**Q.** Which IC50 does the source give for APLEPVYPGDNATPEQNLAQYAADLRRYINMLTRPRY [4055398] here?
**A.** 0.15 nM

**Q.** Which IC50 does the source give for PAPLEPTYPGDNATPEQMAKYAAALRRYINMLTRPRY [7250] here?
**A.** 0.099 nM

Molecular target: T1, human Y4 receptor
Test: 125I-PP displacement
Remark: another data set of the same source

**Q.** Which IC50 does the source give for APLEPMYPGDYATPEQMAQYETQLRRYINTLTRPRY [6803] here?
**A.** 0.2 nM

**Q.** For YYYAPLEPVYPGDYATPEQRAQYETQLRRYINTLTRPRY [6806], which IC50 is on record?
**A.** 0.19 nM

**Q.** For YYYAPLEPVYPGDNATPEQRAQYAADLRRYINTLTRPRY [6808], which IC50 is on record?
**A.** 0.15 nM

**Q.** How did the IC50 turn out when APLEPVYPGDNATPEELNRYYASLRKYINMLTRPRY [6673] was run?
**A.** 0.16 nM

**Q.** With KPLEPVYPGDNATPEELNRYYASLRRYINMLTRPRY [compound of SEQ ID NO:73 (code 6675)] as the binder, how does the IC50 read?
**A.** 0.089 nM

**Q.** Which IC50 does the source give for AAPLEPVYPGDNATPEQMAQYAADLRKYINMLTRPRY [6668] here?
**A.** 0.28 nM

**Q.** With CAPLEPVYPGDNATPEQMAQYAADLRRYINMLTRPRY [6836] as the binder, how does the IC50 read?
**A.** 0.69 nM

**Q.** How did the IC50 turn out when AAPLEPVYPGDNATPEQMAQYAADLRRYINTLTRPRY [6658] was run?
**A.** 0.16 nM

**Q.** For AAPLEPFYPGDNATPEQMAQYAAALRRYINLLTRPRY [6811], which IC50 is on record?
**A.** 0.2 nM

**Q.** How did the IC50 turn out when AAPLEPVYPGDNATPEQLAQYAADLRRYINLLTRPRY [6657] was run?
**A.** 0.25 nM

**Q.** Which IC50 does the source give for AAPLEPVYPGDDATPQQMAQYAAELRKYINMLTRPRY [6814] here?
**A.** 0.22 nM

**Q.** For AAPLEPVYPGDNATPEQMAQYAADLRKYINLLTRPRY [6669], which IC50 is on record?
**A.** 0.32 nM

**Q.** With APLEPFYPGDNATPEQMARYAAELRRYINMLTRPRY [6828] as the binder, how does the IC50 read?
**A.** 0.12 nM

**Q.** Which IC50 does the source give for APLEPVYPGDNATPEQMAQYAADLRRYINMCTRPRY [6835] here?
**A.** 0.26 nM

**Q.** PAPLEPVYPGDDATPQQMAQYAAELRRYINMLTRPRY [6865] was tested. Which IC50 did it give?
**A.** 0.29 nM

**Q.** With AAPLEPFYPGDDATPQQMAQYAAELRRYINMLTRPRY [6818] as the binder, how does the IC50 read?
**A.** 0.15 nM

**Q.** For AAPLEPFYPGDDATPQQMAQYAAALRRYINMLTRPRY [6665], which IC50 is on record?
**A.** 0.12 nM

**Q.** For APLEPFYPGDDATPQQMARYAAELRRYINMLTRPRY [6816], which IC50 is on record?
**A.** 0.15 nM

**Q.** APLEPEYPGDDATPQQMAQYAAELRRYINMLTRPRY [6819] was tested. Which IC50 did it give?
**A.** 0.14 nM

**Q.** For APLEPFYPGDDATPQQMAQYAAELRRYINMLTRPRY [6817], which IC50 is on record?
**A.** 0.2 nM

**Q.** APLEPVYPGDDATPQQMARYAAELRRYINMLTRPRY [6815] was tested. Which IC50 did it give?
**A.** 0.13 nM

**Q.** How did the IC50 turn out when APLEPVYPGDDATPQQMAQYAAEMRRYINMLTRPRY [6667] was run?
**A.** 0.18 nM

**Q.** With APLEPVYPGDNATPEQMAQYAAELRRYINMLTRPRY [6823] as the binder, how does the IC50 read?
**A.** 0.13 nM

**Q.** For APLEPVYPGDDATPQQMAQYAAELRRYINLLTRPRY [6812], which IC50 is on record?
**A.** 0.24 nM

**Q.** Which IC50 does the source give for APLEPEYPGDDATPQQMARYAAELRRYINMLTRPRY [6827] here?
**A.** 0.07 nM

**Q.** How did the IC50 turn out when PLEPVYPGDDATPQQMAQYAAALRRYINMLTRPRY [6666] was run?
**A.** 0.11 nM

**Q.** APLEPVYPGDNATPEQMAQYAADLRRYINMLTRPHRY (ends and bridges not checked) [compound of SEQ ID NO:62 (code 6659)] was tested. Which IC50 did it give?
**A.** 0.17 nM

**Q.** With PAPLEPVYPGDNATPEELVKYYSALRRYINMLTRPRY [6861] as the binder, how does the IC50 read?
**A.** 0.1 nM

**Q.** For AAPLEPVYPGDNATPEELNHYYSALRRYINMLTRPRY [6840], which IC50 is on record?
**A.** 0.17 nM

**Q.** AAPLEPVYPGDNATPEELVKYYSALRRYINMLTRPRY [6863] was tested. Which IC50 did it give?
**A.** 0.16 nM

**Q.** Which IC50 does the source give for HAPLEPVYPGDNATPEELVKYYSALRRYINMLTRPRY [6860] here?
**A.** 0.11 nM

**Q.** For AAPLEPVYPGDNATPEELVKYYSALRRYINMLTRPRY [6862], which IC50 is on record?
**A.** 0.11 nM

**Q.** How did the IC50 turn out when HAPLEPVYPGDNATPEELNQYYASLRRYINMLTRPRY [6857] was run?
**A.** 0.22 nM

**Q.** With AAPLEPVYPGDNATPEELNRYYASLRRYINMLTRPRY [6671] as the binder, how does the IC50 read?
**A.** 0.11 nM

**Q.** APLEPFYPGDNATPEQMAQYAAALRRYINLLTRPRY [6810] was tested. Which IC50 did it give?
**A.** 0.11 nM

**Q.** With APLEPVYPGDNATPEQRAQYAADLRRYINTLTRPRY [6807] as the binder, how does the IC50 read?
**A.** 0.19 nM

**Q.** For APLEPVYPGDNATPEELVKYFIELRRYINMLTRPRY [6849], which IC50 is on record?
**A.** 0.15 nM

**Q.** For APLEPVYPGDNATPEELVKYFVGLRRYINMLTRPRY [6850], which IC50 is on record?
**A.** 0.17 nM

**Q.** For APLEPFYPGDNATPEEIVKYYSALRRYINMLTRPRY [6844], which IC50 is on record?
**A.** 0.19 nM

**Q.** How did the IC50 turn out when APLEPFYPGDNATPEELVKYYASLRRYINMLTRPRY [6846] was run?
**A.** 0.15 nM

**Q.** For APLEPFYPGDNATPEELVKYYSALRRYINMLTRPRY [6843], which IC50 is on record?
**A.** 0.17 nM

**Q.** For APLEPVYPGDNATPEELVKYFSALRRYINMLTRPRY [6848], which IC50 is on record?
**A.** 0.12 nM

**Q.** With APLEPVYPGDNATPEELNHYYSALRRYINMLTRPRY [6839] as the binder, how does the IC50 read?
**A.** 0.12 nM

Source: patent publication US20100279930A1 (published 2010)
